The source of these data is PMC5538626 (EMBO Reports, 2017).

The labels stand for the following.
B1: PLEKHM1‐LIR N637K peptide (biotinylated 9-mer) (peptide, UniProt Q9Y4G2 632-640, looked up)
peptide: EDEWVKVQY
modifications: also: biotinylated
notes: PLEKHM1 LIR; source: bought: JPT (biotinylated peptide)
B2: PLEKHM1‐LIR N637P peptide (biotinylated 9-mer) (peptide, UniProt Q9Y4G2 632-640, looked up)
peptide: EDEWVPVQY
modifications: also: biotinylated
notes: as for B1
B3: PLEKHM1‐LIR N637R peptide (biotinylated 9-mer) (peptide, UniProt Q9Y4G2 632-640, looked up)
peptide: EDEWVRVQY
modifications: also: biotinylated
notes: as for B1
B4: PLEKHM1‐LIR V638A peptide (biotinylated 9-mer) (peptide, UniProt Q9Y4G2 632-640, looked up)
peptide: EDEWVNAQY
modifications: also: biotinylated
notes: as for B1
B5: PLEKHM1‐LIR N637G peptide (biotinylated 9-mer) (peptide, UniProt Q9Y4G2 632-640, looked up)
peptide: EDEWVGVQY
modifications: also: biotinylated
notes: as for B1
B6: PLEKHM1‐LIR V636A peptide (biotinylated 9-mer) (peptide, UniProt Q9Y4G2 632-640, looked up)
peptide: EDEWANVQY
modifications: also: biotinylated
notes: as for B1
B7: NIX/BNIPL3 LIR peptide (33–41), biotinylated (peptide)
peptide: NSSWVELPM
modifications: also: biotinylated
notes: NIX LIR; also called Nix/BNIP3L; source: bought: JPT (biotinylated peptide)
B8: MAP15K LIR peptide (337–345), biotinylated (peptide)
peptide: SRVYQMILE
modifications: also: biotinylated
notes: printed as MAP15K; source: bought: JPT (biotinylated peptide)
B9: ATG4B LIR peptide (4–12), biotinylated (peptide)
peptide: TLTYDTLRF
modifications: also: biotinylated
notes: ATG4B LIR; source: bought: JPT (biotinylated peptide)
B10: TP53INP2/DOR LIR peptide (32–40), biotinylated (peptide)
peptide: VDGWLIIDL
modifications: also: biotinylated
notes: TP53INP2/DOR LIR; source: bought: JPT (biotinylated peptide)
B11: OPTN LIR peptide (175–183), biotinylated (peptide)
peptide: EDSFVEIRM
modifications: also: biotinylated
notes: OPTN LIR; source: bought: JPT (biotinylated peptide)
B12: FAM134B LIR peptide (452–460), biotinylated (peptide)
peptide: GDDFELLDQ
modifications: also: biotinylated
notes: FAM134B LIR; source: bought: JPT (biotinylated peptide)
B13: FIP200 LIR peptide (699–707), biotinylated (peptide)
peptide: TFDFETIPH
modifications: also: biotinylated
notes: FIP200 LIR; source: bought: JPT (biotinylated peptide)
B14: NBR1 LIR peptide (729–737), biotinylated (peptide)
peptide: SEDYIIILP
modifications: also: biotinylated
notes: NBR1 LIR; source: bought: JPT (biotinylated peptide)
B15: ULK2 LIR peptide (350–358), biotinylated (peptide)
peptide: TDDFVLVPH
modifications: also: biotinylated
notes: ULK2 LIR; source: bought: JPT (biotinylated peptide)
B16: FYCO1 LIR peptide (1277–1285), biotinylated (peptide)
peptide: DAVFDIITD
modifications: also: biotinylated
notes: FYCO1 LIR; source: bought: JPT (biotinylated peptide)
B17: ATG13 LIR peptide (441–449), biotinylated (peptide)
peptide: HDDFVMIDF
modifications: also: biotinylated
notes: ATG13 LIR; source: bought: JPT (biotinylated peptide)
B18: TP53INP1 LIR peptide (28–36), biotinylated (peptide)
peptide: DDEWILVDF
modifications: also: biotinylated
notes: TP53INP1 LIR; source: bought: JPT (biotinylated peptide)
B19: TBC1D25 LIR peptide (133–141), biotinylated (peptide)
peptide: LEDWDIISP
modifications: also: biotinylated
notes: TBC1D25 LIR; source: bought: JPT (biotinylated peptide)
B20: Clathrin HC1 LIR peptide (511–519), biotinylated (peptide)
peptide: TPDWIFLLR
modifications: also: biotinylated
notes: Clathrin HC1 LIR; source: bought: JPT (biotinylated peptide)
B21: DVL2 LIR peptide (441–449), biotinylated (peptide)
peptide: DRMWLKITI
modifications: also: biotinylated
notes: DVL2 LIR; source: bought: JPT (biotinylated peptide)
B22: STBD1 LIR peptide (200–208), biotinylated (peptide)
peptide: HEEWEMVPR
modifications: also: biotinylated
notes: STBD1 LIR; source: bought: JPT (biotinylated peptide)
B23: KTBD6 LIR peptide (665–673), biotinylated (peptide)
peptide: DDFWVRVAP
modifications: also: biotinylated
notes: KBTBD6 in the text; also called KBTBD6; KBTDB6; source: bought: JPT (biotinylated peptide)
B24: Calreticulin LIR peptide (197–205), biotinylated (peptide)
peptide: EDDWDFLPP
modifications: also: biotinylated
notes: Calreticulin LIR; source: bought: JPT (biotinylated peptide)
B25: Tax1BP1 LIR peptide (137–145), biotinylated (peptide)
peptide: NSDMLVVTT
modifications: also: biotinylated
notes: Tax1BP1 LIR; source: bought: JPT (biotinylated peptide)
B26: ULK1 LIR peptide (354–362), biotinylated (peptide)
peptide: TDDFVMVPA
modifications: also: biotinylated
notes: ULK1 LIR; source: bought: JPT (biotinylated peptide)
B27: NDP52 LIR peptide (130–138), biotinylated (peptide)
peptide: EEDILVVTT
modifications: also: biotinylated
notes: NDP52 LIR; source: bought: JPT (biotinylated peptide)
B28: JMY LIR peptide (10–18), biotinylated (peptide)
peptide: ESDWVAVRP
modifications: also: biotinylated
notes: JMY LIR; source: bought: JPT (biotinylated peptide)
B29: β‐Catenin LIR peptide (501–509), biotinylated (peptide)
peptide: PSHWPLIKA
modifications: also: biotinylated
notes: β-Catenin LIR; source: bought: JPT (biotinylated peptide)
B30: c‐CBL LIR peptide (799–807), biotinylated (peptide)
peptide: SFGWLSLDG
modifications: also: biotinylated
notes: c-CBL LIR; source: bought: JPT (biotinylated peptide)
B31: TBC1D5 (LIR1) peptide (55–63), biotinylated (peptide)
peptide: RKEWEELFV
modifications: also: biotinylated
notes: TBC1D5 LIR1; source: bought: JPT (biotinylated peptide)
B32: TECPR2 LIR peptide (1403–1411), biotinylated (peptide)
peptide: DLEDEWEVI
modifications: also: biotinylated
notes: TECPR2 LIR; source: bought: JPT (biotinylated peptide)
B33: TBC1D5 (LIR2) peptide (785–793), biotinylated (peptide)
peptide: DSGFTIVSP
modifications: also: biotinylated
notes: TBC1D5 LIR2; source: bought: JPT (biotinylated peptide)
B34: FUNDC1 LIR peptide (printed positions 152–160), biotinylated (peptide)
peptide: DDSYEVLDL
modifications: also: biotinylated
notes: FUNDC1 LIR; source: bought: JPT (biotinylated peptide)

Ends that are not written are not given here.

The target in the first assay is T1, 6xHis‐tagged GABARAP‐L2 (human, UniProt P60520 1-117).
T1 construct: GABARAP-L2/GATE-16, human; also called His6‐GABARAP‐L2; GATE‐16; source: E. coli, isolated
T1 sequence (P60520 whole entry): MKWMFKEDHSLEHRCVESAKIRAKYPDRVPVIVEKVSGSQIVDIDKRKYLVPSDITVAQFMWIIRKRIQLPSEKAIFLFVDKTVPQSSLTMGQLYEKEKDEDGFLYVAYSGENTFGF
Nature of the assay: ELISA; called peptide array: biotinylated peptides immobilised on streptavidin-coated 96-well plates; 1 μM His6-mATG8 in PBS, 0.1% Tween-20, 1% BSA, 1 h, 8°C; anti-His-HRP, TMB, absorbance at 450 nm. Particulars: both partners purified. For orientation: ELISA stands for enzyme-linked immunosorbent assay.
Consider B1, for which the binding result is “binds”.
Same read-out and setting: in the case of B2 it was “binds”.
On the same count and under the same terms, in the case of B3 it was “binds”.
Same read-out and setting: in the case of B4 it was “binds”; in that of B5, “binds”; in that of B6, “binds”.

For a further assay, the target named is T2, 6xHis‐tagged GABARAP‐L1 (human, UniProt Q9H0R8 1-117).
T2 construct: GABARAP-L1, human; also called His6‐GABARAP‐L1; source: E. coli, isolated
T2 sequence (Q9H0R8 whole entry, looked up): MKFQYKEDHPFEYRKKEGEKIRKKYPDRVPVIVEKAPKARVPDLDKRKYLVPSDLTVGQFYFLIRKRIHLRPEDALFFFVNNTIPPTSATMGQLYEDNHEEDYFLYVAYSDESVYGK
The assay is described as above. Particulars: both partners purified.
Take B1: the binding result is “binds”.
Consider B2, for which the binding result is recorded as “binds”.
Consider B3, for which the binding result is listed as “binds”.
Same read-out and setting: the result for B5 reads “binds”.

For another assay, the target named is T3, 6xHis‐tagged GABARAP (human, UniProt O95166 1-117).
T3 construct: GABARAP, human; also called His6‐GABARAP; source: E. coli, isolated
T3 sequence (O95166 whole entry): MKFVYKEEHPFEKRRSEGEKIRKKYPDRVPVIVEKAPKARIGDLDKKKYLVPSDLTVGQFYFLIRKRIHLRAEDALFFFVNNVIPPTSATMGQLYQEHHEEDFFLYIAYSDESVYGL
Described as above. The note with it: both partners purified.
In the case of B7, the binding result is listed as “binds”.
Same read-out and setting: the result for B8 reads “binds”; that for B9, “binds”; that for B10, “binds”.
Take B11: the binding result is recorded as “binds”.
B12: the binding result is “binds”.
Regarding B13, the binding result is reported as “binds”.
With B14, the binding result is reported as “binds”.
Take B15: the binding result was “binds”.
Turning to B16, the binding result is recorded as “binds”.
On to B17, for which the binding result is recorded as “binds”.
With B18, the binding result is on record as “binds”.
As to B1, the binding result is on record as “binds”.
For the molecule B19, the binding result is reported as “binds”.
Regarding B20, the binding result is “binds”.
As to B21, the binding result is “binds”.
For B22, the binding result was “binds”.
Consider B23, for which the binding result is “binds”.
As to B2, the binding result is “binds”.
On to B3, for which the binding result is “binds”.
As for B24, the binding result is reported as “binds”.
B25: the binding result is on record as “binds”.
On to B26, for which the binding result is reported as “binds”.
Turning to B27, the binding result is “binds”.
Consider B28, for which the binding result is recorded as “binds”.
The same measure, in the same setting: the result for B29 reads “binds”; that for B4, “binds”; that for B30, “binds”.
B5: the binding result is reported as “binds”.
B31: the binding result was “binds”.
For the molecule B32, the binding result is recorded as “binds”.
Still for that read-out and setting: in the case of B33 it was “binds”.
For the molecule B6, the binding result was “binds”.

The next assay has as its target 6xHis‐tagged LC3B (human, UniProt Q9GZQ8 1-120). Described as above. The note with it: both partners purified.
As to B7, the binding result is “binds”.
Consider B8, for which the binding result was “binds”.
Consider B9, for which the binding result is listed as “binds”.
B10: the binding result is reported as “binds”.
B12: the binding result was “binds”.
Still for that read-out and setting: in the case of B13 it was “binds”; in that of B16, “binds”.
Take B18: the binding result is listed as “binds”.
In the case of B19, the binding result was “binds”.
Still for that read-out and setting: in the case of B21 it was “binds”; in that of B24, “binds”.
On to B25, for which the binding result was “binds”.
For the molecule B27, the binding result is given as “binds”.
As to B29, the binding result was “binds”.
Take B30: the binding result is on record as “binds”.
The same measure, in the same setting: in the case of B34 it was “binds”; in that of B32, “binds”; in that of B33, “binds”.
